Measured values reported in US20250257122A1 (UNITED STATES OF AMERICA AS REPRESENTED BY THE SECRETARY OF …, published 2025).
Numbering of substitutions follows the chain as printed.

Tests used:
[1] = target: T1, cotton leafroll dwarf virus (CLRDV) N-terminal readthrough domain (^NRTD), purified soluble construct (cotton leafroll dwarf virus (CLRDV), …); test: phage display panning and screening (legend of FIG. 3)
T1 construct: Expressed in E. coli; Calculated MW 26.410 kDa; also called CLRDV ^NRTD; CLRDV ^NRTD (TX)
T1 chain: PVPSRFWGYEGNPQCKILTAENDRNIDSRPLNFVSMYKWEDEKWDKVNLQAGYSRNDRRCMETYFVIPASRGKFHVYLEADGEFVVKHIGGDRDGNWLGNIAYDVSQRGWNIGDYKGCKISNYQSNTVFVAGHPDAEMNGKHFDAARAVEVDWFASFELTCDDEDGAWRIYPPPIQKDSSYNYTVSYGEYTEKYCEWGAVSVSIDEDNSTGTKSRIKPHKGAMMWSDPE
Method: (§1) Isolation and screening for specific single-chain antibodies was carried out as detailed by K. M. Chow, et al. (2019, “Immunization of Alpacas (Lama pacos) with Protein Antigens and Production of Antigen-specific Single Domain Antibodies,” J. Vis. Exp. (143), e58471. doi: 10.3791/58471). Briefly, alpacas were immunized with ˜400 μg of a mixture of both TX and AL CP or ^NRTD preparations that contained 50% (v/v) of adjuvant. Five subsequent weekly boosting injections were provided using ˜200 μg of the same mixture detailed above. Three to five days after the last injection, 50 mL of blood was collected, and lymphocytes purified. A cDNA library was prepared using oligodT primers and RNA extracted from lymphocytes. A bacteriophage library was obtained from the cDNA library by cloning with restriction enzymes into the phage display vector pMES4. Expression of the insert fused to gene III of the filamentous phage was used for production of the phage solution and single-domain antibody panning. After screening, two single-chain antibodies that recognized the CRLDV CP were identified and named B6 (SEQ ID NO: 8) and E3 (SEQ ID NO: 4) and three single-chain antibodies that recognized the CRLDV ^NRTD were identified and names C12 (SEQ ID NO: 12), A12 (SEQ ID NO: 16), and D12 (SEQ ID NO: 20), respectively.

[2] = target: T1, cotton leafroll dwarf virus (CLRDV) …; test: phage display panning and screening
Method: as §1

B1: D12 camelid single-chain antibody (VHH)
VHH: QVQLQESGGGLVQAGDSLRLSCAASGRTFNSFAMGWFRQAPGKEREFVAAIKWNGVTTDYADSMKGRFTISRDNAKNTMYLQMNTLKPEDTAIYYCAAKPTWATTNGRPTAYDYWGQGTQVTVSS
notes: Alpaca VHH, cloned into pMES4 and expressed in E. coli; also called D12 single-chain antibody
binding result [1]: binds

B2: C12 camelid single-chain antibody (VHH)
VHH: B1 VHH with V12A, K65R, L81M
notes: Alpaca VHH, cloned into pMES4 and expressed in E. coli; also called C12 single-chain antibody
binding result [2]: binds

B3: A12 camelid single-chain antibody (VHH)
VHH: B1 VHH with V12A, K52N, T110A
notes: Alpaca VHH, cloned into pMES4 and expressed in E. coli; also called A12 single-chain antibody
binding result [2]: binds
